The array DNA melting data of Ke et al.

Test: melting temperature; melt of duplexes
Conditions: sodium 0.0675 M; strand 1 µM

Substance	Tm [°C]
CGACGTGCTGCATGTGCTG+CAGCACATTGTGCACGTCG ((((((((...((((((((+))))))))...))))))))	45.5
CGACGTGCTGAATGTGCTG+CAGCACATCGTGCACGTCG ((((((((...((((((((+))))))))...))))))))	46.3
CGACGTGCCTCATGTGCTG+CAGCACATTTCGCACGTCG ((((((((...((((((((+))))))))...))))))))	46.5
CGACGTGCCGGATGTGCTG+CAGCACATACCGCACGTCG ((((((((.(.((((((((+)))))))).).))))))))	53.6
CGACGTGCTTTATGTGCTG+CAGCACATTAAGCACGTCG ((((((((((.((((((((+)))))))).))))))))))	55.2
CGACGTGCGATATGTGCTG+CAGCACATCATGCACGTCG ((((((((...((((((((+))))))))...))))))))	50.1
CGACGTGCGCCATGTGCTG+CAGCACATTGCGCACGTCG ((((((((((.((((((((+)))))))).))))))))))	59.3
CGACGTGCGTAATGTGCTG+CAGCACATCAGGCACGTCG ((((((((.(.((((((((+)))))))).).))))))))	51.5
CGACGTGCTGGATGTGCTG+CAGCACATATTGCACGTCG ((((((((...((((((((+))))))))...))))))))	50.9
CGACGTGCCACATGTGCTG+CAGCACATCCCGCACGTCG ((((((((...((((((((+))))))))...))))))))	46.3
CGACGTGCATCATGTGCTG+CAGCACATTCCGCACGTCG ((((((((...((((((((+))))))))...))))))))	46.6
CGACGTGCAGGATGTGCTG+CAGCACATAGAGCACGTCG ((((((((...((((((((+))))))))...))))))))	49.4
CGACGTGCTACATGTGCTG+CAGCACATCTTGCACGTCG ((((((((.(.((((((((+)))))))).).))))))))	49.3
CGACGTGCCGGATGTGCTG+CAGCACATGGTGCACGTCG ((((((((...((((((((+))))))))...))))))))	47
CGACGTGCGTCATGTGCTG+CAGCACATCGCGCACGTCG (((((((((..((((((((+))))))))..)))))))))	54.2
CGACGTGCATTATGTGCTG+CAGCACATTAAGCACGTCG ((((((((.(.((((((((+)))))))).).))))))))	50.3
CGACGTGCCCTATGTGCTG+CAGCACATAAAGCACGTCG ((((((((..(((((((((+)))))))))..))))))))	50
CGACGTGCCATATGTGCTG+CAGCACATCAAGCACGTCG ((((((((...((((((((+))))))))...))))))))	48.6
CGACGTGCCAGATGTGCTG+CAGCACATCTAGCACGTCG ((((((((.((((((((((+)))))))))).))))))))	56.8
CGACGTGCTAGATGTGCTG+CAGCACATGTTGCACGTCG ((((((((.(.((((((((+)))))))).).))))))))	52.2
CGACGTGCACAATGTGCTG+CAGCACATTCTGCACGTCG (((((((((.(((((((((+))))))))).)))))))))	51.7
CGACGTGCCGAATGTGCTG+CAGCACATACGGCACGTCG ((((((((((.((((((((+)))))))).))))))))))	60.1
CGACGTGCCGGATGTGCTG+CAGCACATAGCGCACGTCG ((((((((...((((((((+))))))))...))))))))	49.9
CGACGTGCCGGATGTGCTG+CAGCACATAAAGCACGTCG ((((((((...((((((((+))))))))...))))))))	50.2

Substance	Tm [°C]
CGACGTGCGATATGTGCTG+CAGCACATTGTGCACGTCG ((((((((...((((((((+))))))))...))))))))	47.6
CGACGTGCCGGATGTGCTG+CAGCACATTATGCACGTCG ((((((((...((((((((+))))))))...))))))))	49.7
CGACGTGCGATATGTGCTG+CAGCACATGAAGCACGTCG ((((((((...((((((((+))))))))...))))))))	56.1
CGACGTGCCCGATGTGCTG+CAGCACATGATGCACGTCG ((((((((...((((((((+))))))))...))))))))	48.9
CGACGTGCAGTATGTGCTG+CAGCACATAGCGCACGTCG ((((((((..(((((((((+)))))))))..))))))))	51.7
CGACGTGCCCAATGTGCTG+CAGCACATTCTGCACGTCG ((((((((..(((((((((+)))))))))..))))))))	49.9
CGACGTGCCAAATGTGCTG+CAGCACATCCGGCACGTCG (((((((((..((((((((+))))))))..)))))))))	53.3
CGACGTGCGAAATGTGCTG+CAGCACATGGAGCACGTCG ((((((((...((((((((+))))))))...))))))))	60.7
CGACGTGCAGTATGTGCTG+CAGCACATTTCGCACGTCG ((((((((...((((((((+))))))))...))))))))	49.7
CGACGTGCAGAATGTGCTG+CAGCACATTGCGCACGTCG ((((((((..(((((((((+)))))))))..))))))))	52.1
CGACGTGCGGAATGTGCTG+CAGCACATTGTGCACGTCG ((((((((..(((((((((+)))))))))..))))))))	53.9
CGACGTGCCTTATGTGCTG+CAGCACATTAAGCACGTCG ((((((((.(.((((((((+)))))))).).))))))))	49.8
CGACGTGCGTTATGTGCTG+CAGCACATTTTGCACGTCG ((((((((...((((((((+))))))))...))))))))	49.7
CGACGTGCTCGATGTGCTG+CAGCACATTGGGCACGTCG ((((((((.(.((((((((+)))))))).).))))))))	55.7
CGACGTGCATCATGTGCTG+CAGCACATGTGGCACGTCG ((((((((..(((((((((+)))))))))..))))))))	55
CGACGTGCCTTATGTGCTG+CAGCACATGATGCACGTCG ((((((((.(.((((((((+)))))))).).))))))))	50.1
CGACGTGCCCCATGTGCTG+CAGCACATCCTGCACGTCG ((((((((...((((((((+))))))))...))))))))	46.8
CGACGTGCATTATGTGCTG+CAGCACATTGAGCACGTCG ((((((((...((((((((+))))))))...))))))))	49.5
CGACGTGCCGCATGTGCTG+CAGCACATCCCGCACGTCG ((((((((.(.((((((((+)))))))).).))))))))	48.8
CGACGTGCACTATGTGCTG+CAGCACATCTGGCACGTCG ((((((((...((((((((+))))))))...))))))))	44.2
CGACGTGCAATATGTGCTG+CAGCACATCGAGCACGTCG ((((((((...((((((((+))))))))...))))))))	48.2
CGACGTGCCAAATGTGCTG+CAGCACATGCAGCACGTCG ((((((((...((((((((+))))))))...))))))))	52.7
CGACGTGCCTAATGTGCTG+CAGCACATGGCGCACGTCG ((((((((...((((((((+))))))))...))))))))	51.1
CGACGTGCATTATGTGCTG+CAGCACATCCCGCACGTCG ((((((((...((((((((+))))))))...))))))))	46.1

Substance	Tm [°C]
CGACGTGCAGAATGTGCTG+CAGCACATGGAGCACGTCG ((((((((...((((((((+))))))))...))))))))	55.6
CGACGTGCTAGATGTGCTG+CAGCACATTACGCACGTCG ((((((((...((((((((+))))))))...))))))))	50.1
CGACGTGCAAAATGTGCTG+CAGCACATCATGCACGTCG (((((((((..((((((((+))))))))..)))))))))	49.9
CGACGTGCAGTATGTGCTG+CAGCACATCGTGCACGTCG (((((((((..((((((((+))))))))..)))))))))	48.2
CGACGTGCAGAATGTGCTG+CAGCACATACTGCACGTCG ((((((((((.((((((((+)))))))).))))))))))	57.8
CGACGTGCCTGATGTGCTG+CAGCACATTTAGCACGTCG ((((((((...((((((((+))))))))...))))))))	49.6
CGACGTGCAACATGTGCTG+CAGCACATGGGGCACGTCG ((((((((..(((((((((+)))))))))..))))))))	58.9
CGACGTGCTTGATGTGCTG+CAGCACATAAGGCACGTCG ((((((((.(.((((((((+)))))))).).))))))))	52.3
CGACGTGCACCATGTGCTG+CAGCACATTACGCACGTCG ((((((((...((((((((+))))))))...))))))))	42.4
CGACGTGCAGTATGTGCTG+CAGCACATCCTGCACGTCG ((((((((((.((((((((+)))))))).))))))))))	56.3
CGACGTGCTTTATGTGCTG+CAGCACATGTGGCACGTCG ((((((((...((((((((+))))))))...))))))))	49.6
CGACGTGCTCTATGTGCTG+CAGCACATGAAGCACGTCG (((((((((..((((((((+))))))))..)))))))))	53
CGACGTGCCTGATGTGCTG+CAGCACATACCGCACGTCG ((((((((...((((((((+))))))))...))))))))	48.1
CGACGTGCGATATGTGCTG+CAGCACATGCCGCACGTCG (((((((((..((((((((+))))))))..)))))))))	54.8
CGACGTGCTTGATGTGCTG+CAGCACATTCAGCACGTCG (((((((((..((((((((+))))))))..)))))))))	51.9
CGACGTGCACCATGTGCTG+CAGCACATTTGGCACGTCG ((((((((...((((((((+))))))))...))))))))	44.6
CGACGTGCGGGATGTGCTG+CAGCACATGACGCACGTCG (((((((((..((((((((+))))))))..)))))))))	57.6
CGACGTGCGCCATGTGCTG+CAGCACATATGGCACGTCG ((((((((...((((((((+))))))))...))))))))	48.1
CGACGTGCATGATGTGCTG+CAGCACATGACGCACGTCG ((((((((.(.((((((((+)))))))).).))))))))	46.2
CGACGTGCCCAATGTGCTG+CAGCACATGGGGCACGTCG ((((((((((.((((((((+)))))))).))))))))))	61.3
CGACGTGCGGCATGTGCTG+CAGCACATAGAGCACGTCG ((((((((...((((((((+))))))))...))))))))	56.4
CGACGTGCGCAATGTGCTG+CAGCACATGATGCACGTCG ((((((((...((((((((+))))))))...))))))))	52.5
CGACGTGCACAATGTGCTG+CAGCACATCGCGCACGTCG ((((((((.(.((((((((+)))))))).).))))))))	48.5
CGACGTGCTCTATGTGCTG+CAGCACATGCCGCACGTCG ((((((((...((((((((+))))))))...))))))))	48.2
